Data as given in patent publication US20110098217A1 (INDIANA UNIVERSITY RESEARCH AND TECHNOLOGY, published 2011).
Like-named read-outs stand apart in the source and are kept apart here. Bridge positions count the residues as written; N and C are the ends. Square brackets hold non-standard residues; d marks the D form. Side chains are listed from the residue outwards. Ends that are not written are not given here. Abu(4-SO3H) = N[C@@H](CCS(=O)(=O)O)C(=O)O; PhLac = O=C(O)[C@@H](O)Cc1ccccc1

Assays:
[1] = molecular target: Receptor (human) (UniProt P47871); assay: receptor binding competition
Receptor (human), sequence (P47871 26-477): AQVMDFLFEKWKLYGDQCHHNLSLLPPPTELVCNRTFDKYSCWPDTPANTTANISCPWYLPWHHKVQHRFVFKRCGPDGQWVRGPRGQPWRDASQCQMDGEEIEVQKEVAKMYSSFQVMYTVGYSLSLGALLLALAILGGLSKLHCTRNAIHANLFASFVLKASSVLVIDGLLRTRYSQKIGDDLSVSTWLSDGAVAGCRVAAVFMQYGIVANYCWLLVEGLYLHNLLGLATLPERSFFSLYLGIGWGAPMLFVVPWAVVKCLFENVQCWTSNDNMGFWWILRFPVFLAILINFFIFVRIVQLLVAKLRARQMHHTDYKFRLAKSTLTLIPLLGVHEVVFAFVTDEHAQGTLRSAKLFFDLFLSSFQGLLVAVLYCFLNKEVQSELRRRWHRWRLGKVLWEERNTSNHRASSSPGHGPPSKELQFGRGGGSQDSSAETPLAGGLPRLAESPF

[2] = molecular target: T1, human glucagon receptor (human, UniProt P47871 26-477); assay: cell-based or functional assay
T1 sequence (P47871 26-477): as above

[3] = molecular target: T2, human GLP-1 receptor (human, UniProt P43220 24-463); assay: cell-based or functional assay
[4] = molecular target: T1, human glucagon receptor; assay: cell-based or functional assay; remark: listed apart in the source
[5] = molecular target: T2, human GLP-1 receptor; assay: cell-based or functional assay; remark: listed apart in the source
[6] = molecular target: T1, human glucagon receptor; assay: cell-based or functional assay; remark: listed apart in the source
[7] = molecular target: T1, human glucagon receptor; assay: SPA competition vs 125I-glucagon, receptor membranes
[8] = molecular target: T1, human glucagon receptor; assay: cell-based or functional assay; remark: listed apart in the source
[9] = molecular target: T2, human GLP-1 receptor; assay: cell-based or functional assay; remark: listed apart in the source
[10] = molecular target: T1, human glucagon receptor; assay: cell-based or functional assay; remark: listed apart in the source
[11] = molecular target: T2, human GLP-1 receptor; assay: cell-based or functional assay; remark: listed apart in the source
[12] = molecular target: T1, human glucagon receptor; assay: cell-based or functional assay; remark: listed apart in the source
[13] = molecular target: T1, human glucagon receptor; assay: SPA competition vs 125I-glucagon, receptor membranes; remark: listed apart in the source
[14] = molecular target: T1, human glucagon receptor; assay: cell-based or functional assay; remark: listed apart in the source
[15] = molecular target: T2, human GLP-1 receptor; assay: cell-based or functional assay; remark: listed apart in the source

[3,4-2(F)-F6, E9]G(6-29)-NH2
IC50 [1]: 36.7 nM

[Ac-F6, E9]G(6-29)-NH2
IC50 [1]: 37.1 nM

[2-Nal6, E9]G(6-29)-NH2
IC50 [1]: 95.2 nM

[BMA6, E9]G(6-29)-NH2
IC50 [1]: 80.6 nM

[MCA6, E9]G(6-29)-NH2
IC50 [1]: 114 nM

B1: [PLA6, E16, K20E24(lactam), D28]G(6-29) (peptide)
peptide: [PhLac]TSDYSKYLDERRAKDFVEWLMDT-NH2
modifications: lactam 15-19; N-terminus assumed
SMILES: CSCC[C@H](NC(=O)[C@H](CC(C)C)NC(=O)[C@H](Cc1c[nH]c2ccccc12)NC(=O)[C@@H]1CCC(=O)NCCCC[C@H](NC(=O)[C@H](C)NC(=O)[C@H](CCCNC(=N)N)NC(=O)[C@H](CCCNC(=N)N)NC(=O)[C@H](CCC(=O)O)NC(=O)[C@H](CC(=O)O)NC(=O)[C@H](CC(C)C)NC(=O)[C@H](Cc2ccc(O)cc2)NC(=O)[C@H](CCCCN)NC(=O)[C@H](CO)NC(=O)[C@H](Cc2ccc(O)cc2)NC(=O)[C@H](CC(=O)O)NC(=O)[C@H](CO)NC(=O)[C@@H](NC(=O)[C@@H](O)Cc2ccccc2)[C@@H](C)O)C(=O)N[C@@H](CC(=O)O)C(=O)N[C@@H](Cc2ccccc2)C(=O)N[C@@H](C(C)C)C(=O)N1)C(=O)N[C@@H](CC(=O)O)C(=O)N[C@H](C(N)=O)[C@@H](C)O
Glucagon antagonism IC50 (inhibit 0.2-0.8 nM glucagon) [2]: 74.4 nM | GLP-1 agonism EC50 [3]: 240 nM | Glucagon IC50 [4]: 74 nM | GLP-1 EC50 [5]: 239 nM

SQGTFTSEYSKYLDSRRAQDFVQFLLNT-NH2 [[desHis^1, Glu^9, Phe^25, Leu^27]Glucagon-NH2]
cAMP Induction EC50 [6]: 81 nM | IC50 [7]: 12.6 nM

SQLTFTSEYSKYLDSRRAQDFVQWLMNT-NH2 (also called Cmpd) [[desHis^1, Leu^4, Glu^9] Glucagon-NH2]
cAMP Induction EC50 [6]: 318 nM | cAMP Inhibition IC50 [6]: 102 nM | IC50 [7]: 36.9 nM

HAEGT[PhLac]TSDYSKYLDERRAKDFVQWLMDT-NH2 (lactam 16-20; also: PLA6 linked to Thr5 by an ester bond (depsipeptide)) [[H1A2E3-O-PLA6, D9, E16K20(Lactam), D28] G(1-29)]
Glucagon antagonism IC50 (inhibit 0.8 nM glucagon) [8]: 9.65 nM | GLP-1 agonism EC50 [9]: 6.2 nM

[PhLac]TSDYSKYLDERRAQDFVEWLMKT-NH2 (lactam 19-23; not fully specified) [[PLA6, E16, E24K28(lactam)]G(6-29)]
Glucagon antagonism IC50 (inhibit 0.2-0.8 nM glucagon) [2]: 22.4 nM | GLP-1 agonism EC50 [3]: 289 nM | Glucagon IC50 [4]: 22 nM | GLP-1 EC50 [5]: 289 nM

SQGT[PhLac]TSDYSKYLDERRAKDFVQWLMDT-NH2 (lactam 15-19; also: ester (depsipeptide) bond Thr5-PLA6) [[S2Q3-O-PLA6, D9, E16K20(Lactam), D28] G(2-29)]
Glucagon antagonism IC50 (inhibit 0.8 nM glucagon) [10]: 20.9 nM | GLP-1 agonism EC50 [11]: 112 nM | Glucagon antagonism IC50 (inhibit 0.8 nM glucagon) [8]: 3.14 nM | GLP-1 agonism EC50 [9]: 45.7 nM

SQGTTSDYSKYLDSRRAQDFVQWLMNT-NH2 (His1 and Phe6 deleted; also called Cmpd) [[desHis^1, desPhe^6] Glucagon-NH2]
cAMP Induction EC50 [6]: 1180 nM | IC50 [7]: 130 nM

AEGT[PhLac]TSDYSKYLDERRAKDFVQWLMDT-NH2 (lactam 15-19; also: PLA6 linked to Thr5 by an ester bond (depsipeptide)) [[A2E3-O-PLA6, D9, E16K20(Lactam), D28] G(2-29)]
Glucagon antagonism IC50 (inhibit 0.8 nM glucagon) [10]: 21.8 nM | GLP-1 agonism EC50 [11]: 18 nM | Glucagon antagonism IC50 (inhibit 0.8 nM glucagon) [8]: 4.68 nM | GLP-1 agonism EC50 [9]: 14 nM

B2: [PLA^6, E^9]Glucagon (aa6-29 + CEX)-NH2 (peptide)
peptide: [PhLac]TSEYSKYLDSRRAQDFVQWLMNTGPSSGAPPPS-NH2
modifications: N-terminus assumed
SMILES: CSCC[C@H](NC(=O)[C@H](CC(C)C)NC(=O)[C@H](Cc1c[nH]c2ccccc12)NC(=O)[C@H](CCC(N)=O)NC(=O)[C@@H](NC(=O)[C@H](Cc1ccccc1)NC(=O)[C@H](CC(=O)O)NC(=O)[C@H](CCC(N)=O)NC(=O)[C@H](C)NC(=O)[C@H](CCCNC(=N)N)NC(=O)[C@H](CCCNC(=N)N)NC(=O)[C@H](CO)NC(=O)[C@H](CC(=O)O)NC(=O)[C@H](CC(C)C)NC(=O)[C@H](Cc1ccc(O)cc1)NC(=O)[C@H](CCCCN)NC(=O)[C@H](CO)NC(=O)[C@H](Cc1ccc(O)cc1)NC(=O)[C@H](CCC(=O)O)NC(=O)[C@H](CO)NC(=O)[C@@H](NC(=O)[C@@H](O)Cc1ccccc1)[C@@H](C)O)C(C)C)C(=O)N[C@@H](CC(N)=O)C(=O)N[C@H](C(=O)NCC(=O)N1CCC[C@H]1C(=O)N[C@@H](CO)C(=O)N[C@@H](CO)C(=O)NCC(=O)N[C@@H](C)C(=O)N1CCC[C@H]1C(=O)N1CCC[C@H]1C(=O)N1CCC[C@H]1C(=O)N[C@@H](CO)C(N)=O)[C@@H](C)O
IC50 (cAMP, inhibit 0.1 nM Glucagon) [12]: 24.8 nM | IC50 [13]: 40.3 nM

B3: [PLA^6, D^9]Glucagon(aa6-29)-COOH (peptide)
peptide: [PhLac]TSDYSKYLDSRRAQDFVQWLMNT-OH
modifications: N-terminus assumed
SMILES: CSCC[C@H](NC(=O)[C@H](CC(C)C)NC(=O)[C@H](Cc1c[nH]c2ccccc12)NC(=O)[C@H](CCC(N)=O)NC(=O)[C@@H](NC(=O)[C@H](Cc1ccccc1)NC(=O)[C@H](CC(=O)O)NC(=O)[C@H](CCC(N)=O)NC(=O)[C@H](C)NC(=O)[C@H](CCCNC(=N)N)NC(=O)[C@H](CCCNC(=N)N)NC(=O)[C@H](CO)NC(=O)[C@H](CC(=O)O)NC(=O)[C@H](CC(C)C)NC(=O)[C@H](Cc1ccc(O)cc1)NC(=O)[C@H](CCCCN)NC(=O)[C@H](CO)NC(=O)[C@H](Cc1ccc(O)cc1)NC(=O)[C@H](CC(=O)O)NC(=O)[C@H](CO)NC(=O)[C@@H](NC(=O)[C@@H](O)Cc1ccccc1)[C@@H](C)O)C(C)C)C(=O)N[C@@H](CC(N)=O)C(=O)N[C@H](C(=O)O)[C@@H](C)O
IC50 (cAMP, inhibit 0.1 nM Glucagon) [12]: 13.2 nM | IC50 [13]: 15.5 nM

B4: [PLA^6, D^9]Glucagon(aa6-29)-NH2 (peptide)
peptide: [PhLac]TSDYSKYLDSRRAQDFVQWLMNT-NH2
modifications: N-terminus assumed
SMILES: CSCC[C@H](NC(=O)[C@H](CC(C)C)NC(=O)[C@H](Cc1c[nH]c2ccccc12)NC(=O)[C@H](CCC(N)=O)NC(=O)[C@@H](NC(=O)[C@H](Cc1ccccc1)NC(=O)[C@H](CC(=O)O)NC(=O)[C@H](CCC(N)=O)NC(=O)[C@H](C)NC(=O)[C@H](CCCNC(=N)N)NC(=O)[C@H](CCCNC(=N)N)NC(=O)[C@H](CO)NC(=O)[C@H](CC(=O)O)NC(=O)[C@H](CC(C)C)NC(=O)[C@H](Cc1ccc(O)cc1)NC(=O)[C@H](CCCCN)NC(=O)[C@H](CO)NC(=O)[C@H](Cc1ccc(O)cc1)NC(=O)[C@H](CC(=O)O)NC(=O)[C@H](CO)NC(=O)[C@@H](NC(=O)[C@@H](O)Cc1ccccc1)[C@@H](C)O)C(C)C)C(=O)N[C@@H](CC(N)=O)C(=O)N[C@H](C(N)=O)[C@@H](C)O
IC50 (cAMP, inhibit 0.1 nM Glucagon) [12]: 6.9 nM | IC50 [13]: 13.8 nM

[PhLac]TS[Abu(4-SO3H)]YSKYLDSRRAQDFVQWLMNT-NH2 [[PLA^6, hCys(SO3)^9]Glucagon(aa6-29)-NH2]
IC50 (cAMP, inhibit 0.2 nM Glucagon) [12]: 40.2 nM | IC50 [13]: 14.2 nM

B5: [PLA6, E16K20(lactam), E21, D28] G(6-29) (peptide)
peptide: [PhLac]TSDYSKYLDERRAKEFVQWLMDT-NH2
modifications: lactam 11-15; N-terminus assumed
SMILES: CSCC[C@H](NC(=O)[C@H](CC(C)C)NC(=O)[C@H](Cc1c[nH]c2ccccc12)NC(=O)[C@H](CCC(N)=O)NC(=O)[C@@H](NC(=O)[C@H](Cc1ccccc1)NC(=O)[C@H](CCC(=O)O)NC(=O)[C@@H]1CCCCNC(=O)CC[C@H](NC(=O)[C@H](CC(=O)O)NC(=O)[C@H](CC(C)C)NC(=O)[C@H](Cc2ccc(O)cc2)NC(=O)[C@H](CCCCN)NC(=O)[C@H](CO)NC(=O)[C@H](Cc2ccc(O)cc2)NC(=O)[C@H](CC(=O)O)NC(=O)[C@H](CO)NC(=O)[C@@H](NC(=O)[C@@H](O)Cc2ccccc2)[C@@H](C)O)C(=O)N[C@@H](CCCNC(=N)N)C(=O)N[C@@H](CCCNC(=N)N)C(=O)N[C@@H](C)C(=O)N1)C(C)C)C(=O)N[C@@H](CC(=O)O)C(=O)N[C@H](C(N)=O)[C@@H](C)O
Glucagon antagonism IC50 (inhibit 0.2-0.8 nM glucagon) [2]: 8.6 nM | GLP-1 agonism EC50 [3]: 11.1 nM

[PhLac]TSEYSKYLDSRRAQDFVQWLMNT-NH2 (lactam 4-7) [[PLA6, E9K12(Lactam)] G(6-29)]
Glucagon antagonism IC50 (inhibit 0.8 nM glucagon) [10]: 72.5 nM | GLP-1 agonism EC50 [11]: 144 nM

SQGTFTSEYSKYLDERRAKDFVQWLMDT-NH2 (lactam 15-19) [[S2Q3, E9, E16K20(Lactam), D28] G(2-29)]
Glucagon antagonism IC50 (inhibit 0.8 nM glucagon) [10]: 23.4 nM | GLP-1 agonism EC50 [11]: 284 nM

[PhLac]TSDK([Glu-C16 fatty acid])SKYLDERRAKDFVQWLMDT-NH2 [[PLA6, K10(EC16FA), E16, K20,D28]G(6-29)]
Glucagon antagonism IC50 (inhibit 0.4 nM glucagon) [14]: 222 nM | GLP-1 agonism EC50 [15]: 105 nM
